In patent US20220017615A1:

Legend:
[1] = biological target: human CD47, full length, on transfected cells (human) (UniProt Q08722); assay: FACS, HEK293 clone 293F-hCD47 1A8
[2] = biological target: human CD47, full length, on transfected cells (human) (UniProt Q08722); assay: FACS, HEK293 clone 293F-hCD47 1B4
[3] = biological target: human CD47, full length, on transfected cells (human) (UniProt Q08722); assay: FACS, HEK293 clone 293F-hCD47 1B5
[4] = biological target: human CD47, full length, on transfected cells (human) (UniProt Q08722); assay: FACS, HEK293 clone 293F-hCD47 1B6
[5] = biological target: human CD47, full length, on transfected cells (human) (UniProt Q08722); assay: FACS, HEK293 clone 293F-hCD47 1B8
[6] = biological target: human CD47, full length, on transfected cells (human) (UniProt Q08722); assay: FACS, HEK293 clone 293F-hCD47 1C2
[7] = biological target: human CD47, full length, on transfected cells (human) (UniProt Q08722); assay: FACS, HEK293 clone 293F-hCD47 1C4
[8] = biological target: human CD47, full length, on transfected cells (human) (UniProt Q08722); assay: FACS, HEK293 clone 293F-hCD47 1C8
[9] = biological target: human CD47, full length, on transfected cells (human) (UniProt Q08722); assay: FACS, HEK293 clone 293F-hCD47 1E8
[10] = biological target: human CD47, full length, on transfected cells (human) (UniProt Q08722); assay: FACS, HEK293 clone 293F-hCD47 1F6
[11] = biological target: human CD47, full length, on transfected cells (human) (UniProt Q08722); assay: FACS, HEK293 clone 293F-hCD47 1F8
[12] = biological target: human CD47, full length, on transfected cells (human) (UniProt Q08722); assay: FACS, HEK293 clone 293F-hCD47 2E2
[13] = biological target: human CD47, full length, on transfected cells (human) (UniProt Q08722); assay: FACS, HEK293 clone 293F-hCD47 1B11
[14] = biological target: human CD47, full length, on transfected cells (human) (UniProt Q08722); assay: FACS, HEK293 clone 293F-hCD47 1D10
[15] = biological target: human CD47, full length, on transfected cells (human) (UniProt Q08722); assay: FACS, HEK293 clone 293F-hCD47 1F10
[16] = biological target: human CD47, full length, on transfected cells (human) (UniProt Q08722); assay: FACS, HEK293 clone 293F-hCD47 1F11
[17] = biological target: SIRPα protein with hFc tag (SIRPα-hFc) (UniProt P78324); assay: ELISA on coated SIRPα-hFc 1 µg/mL; control 1 µg/ml
Sequence of SIRPα protein with hFc tag (SIRPα-hFc) (P78324 31-370): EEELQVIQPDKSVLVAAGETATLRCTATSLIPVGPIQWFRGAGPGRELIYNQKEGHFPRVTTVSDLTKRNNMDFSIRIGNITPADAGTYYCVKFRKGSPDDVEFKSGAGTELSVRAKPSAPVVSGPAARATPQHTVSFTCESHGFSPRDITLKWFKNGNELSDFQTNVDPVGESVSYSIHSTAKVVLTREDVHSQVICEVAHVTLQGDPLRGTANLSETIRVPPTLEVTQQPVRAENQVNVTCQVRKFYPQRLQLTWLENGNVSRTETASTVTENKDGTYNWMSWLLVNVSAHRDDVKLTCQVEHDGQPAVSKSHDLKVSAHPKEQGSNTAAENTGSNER

[18] = biological target: SIRPα protein with hFc tag (SIRPα-hFc) (UniProt P78324); assay: ELISA on coated SIRPα-hFc 1 µg/mL; control 0.2 µg/ml
[19] = biological target: SIRPα protein with hFc tag (SIRPα-hFc) (UniProt P78324); assay: ELISA on coated SIRPα-hFc 1 µg/mL; control 0.04 µg/ml
[20] = biological target: SIRPα protein with hFc tag (SIRPα-hFc) (UniProt P78324); assay: ELISA on coated SIRPα-hFc 1 µg/mL; control 0.008 µg/ml
[21] = biological target: SIRPα protein with hFc tag (SIRPα-hFc) (UniProt P78324); assay: ELISA on coated SIRPα-hFc 1 µg/mL; control 0.0001 µg/ml
[22] = biological target: SIRPα protein with hFc tag (SIRPα-hFc) (UniProt P78324); assay: ELISA on coated SIRPα-hFc 1 µg/mL; control 0.0003 µg/ml
[23] = biological target: SIRPα protein with hFc tag (SIRPα-hFc) (UniProt P78324); assay: ELISA on coated SIRPα-hFc 1 µg/mL; control 0.0016 µg/ml
[24] = biological target: SIRPα protein with hFc tag (SIRPα-hFc) (UniProt P78324); assay: ELISA on coated SIRPα-hFc 1 µg/mL; control 0.00001 µg/ml

In the case of IgG subtype control (antibody), the Mean fluorescence intensity [1] is reported as 3.2, the Positive cells (%) [1] is reported as 2.19% and the Mean fluorescence intensity [2] is reported as 2.56. It also gave a Positive cells (%) [2] of 1.6%, a Mean fluorescence intensity [3] of 2.72 and a Positive cells (%) [3] of 0.85%. It also gave a Mean fluorescence intensity [4] of 3.22, a Positive cells (%) [4] of 5.7% and a Mean fluorescence intensity [5] of 3.11. The Positive cells (%) [5] was 3.08%, the Mean fluorescence intensity [6] was 2.47 and the Positive cells (%) [6] was 1.85%. The Mean fluorescence intensity [7] was 3.84, the Positive cells (%) [7] was 2.55% and the Mean fluorescence intensity [8] was 2.15. The Positive cells (%) [8] was 0.81%, the Mean fluorescence intensity [9] was 2.79 and the Positive cells (%) [9] was 1.29%. The Mean fluorescence intensity [10] was 2.94, the Positive cells (%) [10] was 2.35% and the Mean fluorescence intensity [11] was 2.66. For the same substance, the Positive cells (%) [11] was 3.13%, the Mean fluorescence intensity [12] was 2.79 and the Positive cells (%) [12] was 2.42%. For the same substance, the Mean fluorescence intensity [13] was 2.87, the Positive cells (%) [13] was 4.7% and the Mean fluorescence intensity [14] was 3.19. It also gave a Positive cells (%) [14] of 2.38%, a Mean fluorescence intensity [15] of 3.64 and a Positive cells (%) [15] of 3.85%. The Mean fluorescence intensity [16] was 3.73 and the Positive cells (%) [16] was 3.78%.
“Control protein (non-CD47 fusion protein)” gave an OD450 nm [17] of 0.19, an OD450 nm [18] of 0.11 and an OD450 nm [19] of 0.1. It also gave an OD450 nm [20] of 0.06, an OD450 nm [21] of 0.07 and an OD450 nm [22] of 0.07. For the same substance, the OD450 nm [23] was 0.08 and the OD450 nm [24] was 0.06.
